Results: the Immune Epitope Database (IEDB)
Values belong to the sequence of their own block, whether it stands above or below them.

How the values were obtained:
HLA-A*68:02 = assay: IEDB peptide-MHC binding, purified MHC/competitive/fluorescence; filed as Kd, often an IC50 or EC50 that approximates it; ≥ and ≤ were set here for values at or beyond the usual limits of such assays
HLA-A*31:01 = assay: as above; settings: source organism: Escherichia coli 536
HLA-B*57:01 = assay: as above; settings: source organism: Escherichia coli 536
HLA-A*02:11 = assay: as above
HLA-A*02:01 [1] = assay: as above
HLA-A*02:12 = assay: as above
HLA-B*46:01 = assay: as above; settings: source organism: Escherichia coli 536
HLA-A*69:01 = assay: as above
HLA-B*15:01 = assay: as above; settings: source organism: Escherichia coli 536
HLA-A*02:03 [2] = assay: as above
HLA-A*24:03 = assay: as above
HLA-A*26:01 = assay: as above
HLA-A*02:16 = assay: as above
HLA-A*02:19 = assay: as above
HLA-B*51:01 = assay: as above
HLA-B*18:01 = assay: as above; settings: source organism: Escherichia coli 536
HLA-B*39:01 = assay: as above
HLA-A*02:17 = assay: IEDB peptide-MHC binding, purified MHC/competitive/radioactivity; filed as Kd, often an IC50 or EC50 that approximates it; ≥ and ≤ were set here for values at or beyond the usual limits of such assays
HLA-A*02:01 [3] = assay: as above
HLA-A*02:03 [4] = assay: as above
HLA-A*68:23 = assay: IEDB peptide-MHC binding, purified MHC/competitive/fluorescence; filed as Kd, often an IC50 or EC50 that approximates it; ≥ and ≤ were set here for values at or beyond the usual limits of such assays; settings: source organism: West Nile virus
HLA-B*45:06 = assay: as above
HLA-B*83:01 = assay: as above
HLA-A*32:07 = assay: as above; settings: source organism: West Nile virus
HLA-B*15:42 = assay: as above
HLA-A*32:15 = assay: as above; settings: source organism: West Nile virus
HLA-A*02:06 [5] = assay: as above
HLA-C*15:02 = assay: IEDB peptide-MHC binding, purified MHC/direct/fluorescence; filed as Kd, often an IC50 or EC50 that approximates it; ≥ and ≤ were set here for values at or beyond the usual limits of such assays
HLA-B*08:01 = assay: IEDB peptide-MHC binding, purified MHC/competitive/radioactivity; filed as Kd, often an IC50 or EC50 that approximates it; ≥ and ≤ were set here for values at or beyond the usual limits of such assays; settings: source organism: Dengue virus 1 Brazil/97-11/1997
HLA-A*02:06 [6] = assay: as above
HLA-C*05:01 = assay: IEDB peptide-MHC binding, purified MHC/direct/fluorescence; filed as Kd, often an IC50 or EC50 that approximates it; ≥ and ≤ were set here for values at or beyond the usual limits of such assays
HLA-C*12:03 = assay: as above
HLA-C*03:03 = assay: as above
HLA-B*35:01 = assay: IEDB peptide-MHC binding, purified MHC/competitive/fluorescence; filed as Kd, often an IC50 or EC50 that approximates it; ≥ and ≤ were set here for values at or beyond the usual limits of such assays
HLA-A*03:01 = assay: as above; settings: source organism: Salmonella enterica subsp. enterica serovar Typhi
HLA-B*07:02 = assay: IEDB peptide-MHC binding, purified MHC/direct/fluorescence; filed as Kd, often an IC50 or EC50 that approximates it; ≥ and ≤ were set here for values at or beyond the usual limits of such assays; settings: source organism: Mammarenavirus juninense
HLA-B*53:01 = assay: IEDB peptide-MHC binding, purified MHC/competitive/radioactivity; filed as Kd, often an IC50 or EC50 that approximates it; ≥ and ≤ were set here for values at or beyond the usual limits of such assays; settings: source organism: Mammarenavirus juninense
HLA-B*54:01 = assay: as above; settings: source organism: Mammarenavirus juninense
HLA-A*29:02 = assay: IEDB peptide-MHC binding, purified MHC/competitive/fluorescence; filed as Kd, often an IC50 or EC50 that approximates it; ≥ and ≤ were set here for values at or beyond the usual limits of such assays
HLA-B*27:03 = assay: as above; settings: source organism: Entamoeba histolytica HM-1:IMSS
[7] = source organism: Escherichia coli 536
[8] = source organism: Dengue virus 4 Philippines/H241/1956
[9] = source organism: West Nile virus
[10] = source organism: Human herpesvirus 5 strain Towne
[11] = source organism: Dengue virus 1 Singapore/S275/1990
[12] = source organism: Dengue virus 1 Brazil/97-11/1997
[13] = source organism: Salmonella enterica subsp. enterica serovar Typhi str. CT18
[14] = source organism: Salmonella enterica subsp. enterica serovar Typhi
[15] = source organism: Dengue virus 2 Jamaica/1409/1983
[16] = source organism: Mammarenavirus juninense
[17] = source organism: Entamoeba histolytica HM-1:IMSS
[18] = source organism: Yersinia pestis Nepal516
[19] = source organism: Bacillus anthracis str. A0488
[20] = source organism: Human immunodeficiency virus 1
[21] = source organism: Dengue virus 3 China/80-2/1980

- Kd (HLA-A*68:02; [7]): ≥ 20 µM
- Kd (HLA-A*31:01): 0.0456 µM
- Kd (HLA-B*57:01): ≥ 20 µM
- Kd (HLA-A*02:11; [7]): ≥ 20 µM
- Kd (HLA-A*02:01 [1]; [7]): ≥ 20 µM
- Kd (HLA-A*02:12; [7]): ≥ 20 µM
- Kd (HLA-B*46:01): ≥ 20 µM
- Kd (HLA-A*69:01; [7]): ≥ 20 µM
- Kd (HLA-B*15:01): ≥ 20 µM
- Kd (HLA-A*02:03 [2]; [7]): ≥ 20 µM
- Kd (HLA-A*24:03; [7]): ≥ 20 µM
- Kd (HLA-A*26:01; [7]): ≥ 20 µM
- Kd (HLA-A*02:16; [7]): ≥ 20 µM
- Kd (HLA-A*02:19; [7]): ≥ 20 µM
- Kd (HLA-B*51:01; [7]): ≥ 20 µM
- Kd (HLA-B*18:01): ≥ 20 µM
- Kd (HLA-B*39:01; [7]): ≥ 20 µM
Sequence: RVGIYFGMK

Sequence: FMTATPPGA
- Kd (HLA-A*02:17; [8]): 6.44 µM
- Kd (HLA-A*02:01 [3]; [8]): 0.049 µM
- Kd (HLA-A*02:03 [4]; [8]): 0.152 µM

Sequence: ETTNWLWTF
- Kd (HLA-A*68:23): 0.0022 µM
- Kd (HLA-B*45:06; [9]): ≥ 5 µM
- Kd (HLA-B*83:01; [9]): ≥ 5 µM
- Kd (HLA-A*32:07): 0.0017 µM
- Kd (HLA-B*15:42; [9]): ≥ 5 µM
- Kd (HLA-A*32:15): 0.0185 µM

Sequence: NLVPMVATV
- Kd (HLA-A*02:11; [10]): ≤ 0.0001 µM
- Kd (HLA-A*02:12; [10]): 0.00155 µM
- Kd (HLA-A*69:01; [10]): 0.075 µM
- Kd (HLA-A*02:06 [5]; [10]): ≤ 0.0001 µM
- Kd (HLA-A*02:16; [10]): 0.000543 µM
- Kd (HLA-A*02:19; [10]): 0.0006 µM

Sequence: VTNRHEEKF
- Kd (HLA-C*15:02; source organism: human gammaherpesvirus 4): 4.27 µM

Sequence: LLMRTTWAL
- Kd (HLA-A*02:17; [11]): 0.00489 µM
- Kd (HLA-B*08:01): 0.0207 µM
- Kd (HLA-A*02:01 [3]; [11]): 0.0214 µM
- Kd (HLA-A*02:03 [4]; [12]): 0.000817 µM
- Kd (HLA-A*02:06 [6]; [12]): 0.00143 µM

Sequence: FVVDTTPPL
- Kd (HLA-C*05:01; [13]): 1.1 µM
- Kd (HLA-C*12:03; [13]): 0.372 µM
- Kd (HLA-C*03:03; [13]): 0.002 µM
- Kd (HLA-B*45:06; [14]): ≥ 5 µM
- Kd (HLA-B*35:01; [14]): ≤ 0.0001 µM
- Kd (HLA-A*02:01 [1]; [14]): 0.0002 µM
- Kd (HLA-B*83:01; [14]): ≥ 5 µM
- Kd (HLA-B*15:42; [14]): ≥ 5 µM
- Kd (HLA-B*39:01; [14]): 0.007 µM

Sequence: HVCYFSHPY
- Kd (HLA-B*35:01; [14]): 0.0007 µM
- Kd (HLA-A*03:01): ≥ 20 µM

Sequence: KTIPVAMTL
- Kd (HLA-C*15:02; source organism: Salmonella enterica subsp. enterica serovar Typhimurium str. LT2): 0.015 µM

Sequence: KLSMGLIAI
- Kd (HLA-A*02:17; [8]): 2.48 µM
- Kd (HLA-A*02:01 [3]; [8]): 0.0124 µM
- Kd (HLA-A*02:03 [4]; [8]): 0.0314 µM

Sequence: TLLLLTLLAT
- Kd (HLA-A*02:17; [15]): 1.32 µM
- Kd (HLA-A*02:01 [3]; [15]): 0.141 µM

Sequence: LIFILLTAV
- Kd (HLA-A*02:17; [15]): 3.59 µM
- Kd (HLA-A*02:01 [3]; [15]): 0.0744 µM
- Kd (HLA-A*02:03 [4]; [15]): 0.0562 µM
- Kd (HLA-A*02:06 [6]; [15]): 0.497 µM

Sequence: LPTTITVPV
- Kd (HLA-B*07:02): 0.824 µM
- Kd (HLA-B*35:01; [16]): ≤ 0.0001 µM
- Kd (HLA-B*51:01; [16]): 0.7 µM
- Kd (HLA-B*53:01): 0.127 µM
- Kd (HLA-B*54:01): 0.009 µM

Sequence: KTFEWGVFY
- Kd (HLA-A*68:02; [17]): ≥ 20 µM
- Kd (HLA-A*29:02; [17]): 0.0005 µM
- Kd (HLA-B*27:03): ≥ 20 µM
- Kd (HLA-A*02:12; [17]): ≥ 20 µM
- Kd (HLA-A*69:01; [17]): ≥ 20 µM
- Kd (HLA-A*02:03 [2]; [17]): ≥ 20 µM
- Kd (HLA-A*24:03; [17]): ≥ 20 µM
- Kd (HLA-A*26:01; [17]): ≥ 20 µM
- Kd (HLA-A*02:16; [17]): ≥ 20 µM
- Kd (HLA-A*02:19; [17]): ≥ 20 µM
- Kd (HLA-B*39:01; [17]): ≥ 20 µM

Sequence: FASASSYAI
- Kd (HLA-C*05:01; [18]): 0.866 µM
- Kd (HLA-C*12:03; [18]): 0.105 µM
- Kd (HLA-C*03:03; [18]): ≤ 0.001 µM
- Kd (HLA-B*35:01; [18]): 0.0004 µM
- Kd (HLA-B*51:01; [18]): 3.78 µM
- Kd (HLA-B*39:01; [18]): 0.0074 µM

Sequence: FVFGIPLLV
- Kd (HLA-C*15:02; [19]): 0.041 µM
- Kd (HLA-C*12:03; [19]): ≤ 0.001 µM
- Kd (HLA-A*29:02; [19]): 0.0002 µM

Sequence: DLADQLIHL
- Kd (HLA-A*02:11; [20]): 0.033 µM
- Kd (HLA-A*02:01 [1]; [20]): 0.178 µM
- Kd (HLA-A*02:12; [20]): 0.476 µM
- Kd (HLA-A*69:01; [20]): 0.0198 µM
- Kd (HLA-A*02:03 [2]; [20]): 0.136 µM
- Kd (HLA-A*02:06 [5]; [20]): 0.059 µM
- Kd (HLA-A*02:16; [20]): 0.0555 µM
- Kd (HLA-A*02:19; [20]): 0.0425 µM

Sequence: LLLGLMILL
- Kd (HLA-A*02:17; [21]): 0.11 µM
- Kd (HLA-A*02:01 [3]; [21]): 0.0136 µM

Sequence: YMPTVIEEL
- Kd (HLA-A*02:17; [8]): 0.00523 µM
- Kd (HLA-A*02:01 [3]; [8]): 0.0396 µM
- Kd (HLA-A*02:03 [4]; [8]): 0.0919 µM
- Kd (HLA-A*02:06 [6]; [8]): 0.0469 µM
